According to US20260209345A1 (IOMX THERAPEUTICS, published 2026):

Assays:
[1] = target: LILRB1 on transiently transfected Expi293 cells (human, UniProt Q8NHL6 24-650); assay: flow cytometry, transfected Expi293 cells
Description: (§1) Non-transfected Expi293 cells were used as negative control. Cells were harvested and labeled with CellTraceViolet for multiplexing. […] Subsequently, cells were washed and stained with a secondary anti-human IgG labeled with AF647 for 30 minutes at 4° C. in the dark. Cells were washed again and mixed with 7-AAD viability dye before flow acquisition to test for surface binding.

[2] = target: LILRB2 on transiently transfected Expi293 cells (human, UniProt Q8N423 22-597); assay: flow cytometry, transfected Expi293 cells
Sequence of LILRB2 on transiently transfected Expi293 cells (Q8N423 22-597 limits assumed): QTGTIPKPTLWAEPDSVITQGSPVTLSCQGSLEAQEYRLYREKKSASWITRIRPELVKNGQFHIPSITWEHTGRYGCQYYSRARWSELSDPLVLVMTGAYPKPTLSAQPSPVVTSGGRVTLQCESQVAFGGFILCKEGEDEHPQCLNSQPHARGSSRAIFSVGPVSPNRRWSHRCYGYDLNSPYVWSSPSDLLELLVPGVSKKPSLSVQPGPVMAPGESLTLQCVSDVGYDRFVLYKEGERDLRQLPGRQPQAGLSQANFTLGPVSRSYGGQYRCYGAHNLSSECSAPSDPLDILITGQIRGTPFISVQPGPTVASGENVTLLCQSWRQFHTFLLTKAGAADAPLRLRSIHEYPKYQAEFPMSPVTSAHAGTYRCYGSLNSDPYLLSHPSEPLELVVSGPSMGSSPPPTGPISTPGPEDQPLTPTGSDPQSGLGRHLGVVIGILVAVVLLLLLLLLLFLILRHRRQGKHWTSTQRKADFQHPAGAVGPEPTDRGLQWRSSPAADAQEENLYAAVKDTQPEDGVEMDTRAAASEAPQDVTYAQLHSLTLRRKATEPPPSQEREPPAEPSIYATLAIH
Description: as §1

[3] = target: T1, LILRA2 on transiently transfected Expi293 cells (human, UniProt Q8N149 24-483); assay: flow cytometry, transfected Expi293 cells
T1 construct: whole, on cells
T1 sequence (Q8N149 24-483): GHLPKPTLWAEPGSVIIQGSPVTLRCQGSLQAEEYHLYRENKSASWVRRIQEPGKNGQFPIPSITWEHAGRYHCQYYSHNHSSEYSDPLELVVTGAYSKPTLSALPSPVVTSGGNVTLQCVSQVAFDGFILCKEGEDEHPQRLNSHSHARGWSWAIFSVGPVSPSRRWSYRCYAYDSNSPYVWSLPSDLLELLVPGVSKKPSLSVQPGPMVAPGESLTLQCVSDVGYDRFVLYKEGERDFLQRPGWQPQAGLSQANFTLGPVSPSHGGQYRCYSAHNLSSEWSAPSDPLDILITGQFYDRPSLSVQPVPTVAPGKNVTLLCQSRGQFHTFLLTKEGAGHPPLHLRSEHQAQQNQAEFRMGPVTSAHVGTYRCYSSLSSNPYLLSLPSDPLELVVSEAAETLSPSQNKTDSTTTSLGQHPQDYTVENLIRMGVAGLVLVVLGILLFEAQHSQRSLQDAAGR
Description: as §1

recombinant LILRB1 ECD [4] = target: T2, recombinant LILRB1 ECD (human, UniProt Q8NHL6 24-461); assay: ELISA, LILRB1 ECD binding to HLA-G-Fc
T2 construct: also called biotinylated LILRB1 ECD
T2 sequence (Q8NHL6 24-461 limits assumed): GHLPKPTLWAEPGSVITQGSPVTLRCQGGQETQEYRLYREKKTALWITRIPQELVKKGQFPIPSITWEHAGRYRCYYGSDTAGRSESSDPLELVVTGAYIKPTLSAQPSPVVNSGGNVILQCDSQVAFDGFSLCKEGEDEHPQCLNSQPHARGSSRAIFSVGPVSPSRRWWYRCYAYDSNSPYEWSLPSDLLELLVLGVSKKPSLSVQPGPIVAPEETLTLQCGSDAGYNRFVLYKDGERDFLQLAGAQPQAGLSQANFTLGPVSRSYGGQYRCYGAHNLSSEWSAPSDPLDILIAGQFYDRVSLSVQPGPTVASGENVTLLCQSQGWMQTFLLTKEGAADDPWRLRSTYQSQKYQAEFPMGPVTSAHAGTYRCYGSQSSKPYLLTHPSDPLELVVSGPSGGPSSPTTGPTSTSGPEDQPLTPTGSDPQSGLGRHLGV
Method in brief: (§2)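 Plates coated with 2 ug/mL B2M-HLA-G–mouse IgG2a-Fc. Antibodies (final 100 nM to 0.1 nM) premixed 1 h at room temperature with LILRB ECD/avidin-HRP, then applied to the HLA-G plate for 15 min. Residual LILRB binding read by TMB development.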

recombinant LILRB2 ECD [5] = target: T3, recombinant LILRB2 ECD (human, UniProt Q8N423 22-460); assay: ELISA, LILRB2 ECD binding to HLA-G-Fc
T3 construct: also called biotinylated LILRB2 ECD
T3 sequence (Q8N423 22-460 limits assumed): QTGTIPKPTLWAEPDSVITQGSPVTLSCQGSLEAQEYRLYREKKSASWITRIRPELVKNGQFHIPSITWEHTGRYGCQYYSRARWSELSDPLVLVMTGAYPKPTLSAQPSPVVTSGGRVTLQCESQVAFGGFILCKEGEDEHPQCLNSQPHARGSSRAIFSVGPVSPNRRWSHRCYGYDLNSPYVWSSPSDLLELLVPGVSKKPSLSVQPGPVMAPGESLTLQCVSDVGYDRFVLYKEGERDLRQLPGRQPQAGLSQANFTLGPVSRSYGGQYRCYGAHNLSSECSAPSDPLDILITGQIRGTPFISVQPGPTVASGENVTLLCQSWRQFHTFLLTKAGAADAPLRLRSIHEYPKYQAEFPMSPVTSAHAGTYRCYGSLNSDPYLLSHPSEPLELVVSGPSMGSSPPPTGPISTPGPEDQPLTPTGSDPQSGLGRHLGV
Method in brief: as §2

recombinant LILRB2 ECD [6] = target: T3, recombinant LILRB2 ECD; assay: BLI, IgG on AHC sensor, ECD in solution
Description: (§3) Briefly, IgGs were captured on anti-human capture (AHC) biosensors (Sartorius). […] Subsequently, the sensors were dipped into 1× Kinetics Buffer to measure the dissociation over 420 s. All sensorgrams were double referenced against 1× Kinetics Buffer and unloaded […] sensors to subtract sensor drifts and potential reference binding of the analytes. The affinities were determined by applying a 1:1 binding model.

recombinant LILRB1 ECD [7] = target: T2, recombinant LILRB1 ECD; assay: BLI, IgG on AHC sensor, ECD in solution
Description: as §3

recombinant LILRA3 = target: T4, recombinant LILRA3 (human, UniProt Q8N6C8 24-439); assay: BLI, IgG on AHC sensor, ECD in solution; biochemical assay, monovalent KD on recombinant protein (Table 2): weak off-target binding, 575 nM
T4 construct: whole entry named; also called LILRA3 ECD; LILA3
T4 sequence (Q8N6C8 24-439 limits assumed): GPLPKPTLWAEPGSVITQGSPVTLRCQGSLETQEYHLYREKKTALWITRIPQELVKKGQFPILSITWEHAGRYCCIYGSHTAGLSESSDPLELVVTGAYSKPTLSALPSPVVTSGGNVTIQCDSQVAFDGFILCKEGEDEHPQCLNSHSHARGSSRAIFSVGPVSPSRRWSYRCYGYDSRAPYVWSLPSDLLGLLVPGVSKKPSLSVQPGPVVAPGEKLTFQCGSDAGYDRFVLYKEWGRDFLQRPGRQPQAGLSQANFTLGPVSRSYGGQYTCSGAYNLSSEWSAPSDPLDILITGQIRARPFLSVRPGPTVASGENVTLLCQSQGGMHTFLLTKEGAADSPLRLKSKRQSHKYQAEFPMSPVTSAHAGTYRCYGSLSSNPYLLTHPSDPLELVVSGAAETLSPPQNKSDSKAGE
Description: as §3

recombinant LILRA1 ECD = target: T5, recombinant LILRA1 ECD (human, UniProt O75019 17-461); assay: BLI, IgG on AHC sensor, ECD in solution; biochemical assay, monovalent KD on recombinant protein (Table 2): weak off-target binding, 962 nM
T5 construct: whole canonical entry named; also called LILA1
T5 sequence (O75019 17-461 limits assumed): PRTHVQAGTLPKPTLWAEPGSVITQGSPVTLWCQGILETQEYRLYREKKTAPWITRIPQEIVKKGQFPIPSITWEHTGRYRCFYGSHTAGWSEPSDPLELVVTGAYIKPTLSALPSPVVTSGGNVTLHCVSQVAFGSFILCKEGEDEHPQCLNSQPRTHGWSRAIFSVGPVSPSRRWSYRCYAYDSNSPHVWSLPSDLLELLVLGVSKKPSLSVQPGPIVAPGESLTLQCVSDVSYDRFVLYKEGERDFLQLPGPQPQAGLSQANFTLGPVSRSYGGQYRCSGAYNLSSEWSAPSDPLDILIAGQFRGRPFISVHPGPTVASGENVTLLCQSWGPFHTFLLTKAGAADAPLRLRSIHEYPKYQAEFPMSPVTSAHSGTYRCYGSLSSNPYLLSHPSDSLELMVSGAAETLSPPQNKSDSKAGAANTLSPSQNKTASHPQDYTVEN
Description: as §3

Sequence of LILRB1 on transiently transfected Expi293 cells (Q8NHL6 24-650 limits assumed): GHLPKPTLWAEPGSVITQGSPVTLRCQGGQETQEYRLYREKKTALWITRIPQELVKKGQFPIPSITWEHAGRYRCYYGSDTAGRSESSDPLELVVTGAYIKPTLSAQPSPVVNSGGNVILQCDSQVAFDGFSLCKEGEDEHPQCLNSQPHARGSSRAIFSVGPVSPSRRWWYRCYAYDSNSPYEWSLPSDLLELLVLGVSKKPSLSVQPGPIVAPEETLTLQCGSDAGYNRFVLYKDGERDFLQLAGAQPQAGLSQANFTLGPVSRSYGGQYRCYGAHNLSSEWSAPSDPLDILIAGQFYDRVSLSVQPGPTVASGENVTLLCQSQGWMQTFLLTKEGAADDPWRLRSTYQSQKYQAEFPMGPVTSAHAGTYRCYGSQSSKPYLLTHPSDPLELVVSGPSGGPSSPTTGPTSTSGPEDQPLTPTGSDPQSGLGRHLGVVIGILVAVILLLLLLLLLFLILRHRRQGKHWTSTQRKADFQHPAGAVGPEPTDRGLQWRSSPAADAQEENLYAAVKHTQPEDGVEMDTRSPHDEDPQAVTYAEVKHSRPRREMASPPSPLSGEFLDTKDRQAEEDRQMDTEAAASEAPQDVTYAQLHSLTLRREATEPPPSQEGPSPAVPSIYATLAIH

B1: A-045 (antibody, V domains shown)
VH: QVQLVQSGAEVKKPGSSVKVSCKASGGTFQSQAFAWVRQAPGQGLEWMGSIIPGFSTANYAQKFQGRVTITADESTSTAYMELSSLRSEDTAVYYCAKDLGTYSSGWPYYYGMDVWGQGTTVTVSS
VL: SYELTQPPSVSVSPGQTASITCSGDKLGDKYASWYQQKPGQSPVLVIYQDSKRPSGIPERFSGSNSGNTATLTISGTQAEDEADYYCQLTHLTIYVFGGGTKLTVL
notes: tested as IgG; HC of A-010 and LC of A-036
[1]
  EC50: 1.5 nM
[2]
  EC50: 1.3 nM
[3]
  binding result: no binding
Recombinant LILRB1 ECD [4]
  IC50: 2.1 nM
Recombinant LILRB2 ECD [5]
  IC50: 3.5 nM
Recombinant LILRB2 ECD [6]
  Kd: 2.8 nM
Recombinant LILRB1 ECD [7]
  Kd: 2.3 nM
Recombinant LILRA3
  Kd: 575 nM
Recombinant LILRA1 ECD
  Kd: 962 nM
